Source: article PMC4682845

Molecular target: MERS-CoV main protease (M^pro), wild type, authentic N-terminus (MERS-CoV)
Experiment: AUC

Sequence of MERS-CoV main protease (M^pro), wild type, authentic N-terminus (enzyme) (K9N638 3248-3553 limits assumed): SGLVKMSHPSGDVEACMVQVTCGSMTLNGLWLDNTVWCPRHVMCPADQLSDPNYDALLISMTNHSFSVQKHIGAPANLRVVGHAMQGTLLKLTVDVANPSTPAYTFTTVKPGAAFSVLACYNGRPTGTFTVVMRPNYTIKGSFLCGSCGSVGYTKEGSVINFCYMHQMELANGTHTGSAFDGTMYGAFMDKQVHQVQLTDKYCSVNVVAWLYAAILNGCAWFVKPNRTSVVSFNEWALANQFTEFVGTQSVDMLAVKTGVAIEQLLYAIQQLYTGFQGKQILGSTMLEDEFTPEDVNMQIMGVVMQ

Substance: MERS-CoV main protease (M^pro), wild type, authentic N-terminus (enzyme)
- percent dimer: 70%
